Results on two molecules are retold here after publication PMC3958441, “Isl1 and Pou4f2 Form a Complex to Regulate Target Genes in Developing Retinal Ganglion Cells” (PLoS ONE, 2014).

Holding throughout (assay): EMSA; EMSA: 20 mM Tris-HCl pH 7.5, 50 mM NaCl, 10 mM DTT, 1 mM EDTA, 5% glycerol, 200 ng dI/dC, 200 ng each protein in 20 ul, 4 C, 30 min; 8% PAGE, 1x TBE, 4 C
Common to all, as to conditions: protein: recombinant; tags: His (C-terminal); (radiolabel, Klenow fill-in); 5' overhang 1 nt at both ends before fill-in
For orientation: A gel shift assay detects complexes by their altered migration in electrophoresis.

One series addresses T1, Pou4f2D4 (mouse, UniProt Q63934 169-411).
T1 sequence: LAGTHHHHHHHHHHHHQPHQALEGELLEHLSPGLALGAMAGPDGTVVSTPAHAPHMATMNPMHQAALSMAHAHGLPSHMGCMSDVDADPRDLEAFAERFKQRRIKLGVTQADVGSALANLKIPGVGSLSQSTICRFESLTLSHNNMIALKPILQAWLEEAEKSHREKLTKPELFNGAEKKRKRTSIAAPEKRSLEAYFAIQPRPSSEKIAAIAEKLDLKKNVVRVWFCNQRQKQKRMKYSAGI

The target in a further series is T2, Isl1D3 (mouse, UniProt P61372 170-349).
T2 sequence: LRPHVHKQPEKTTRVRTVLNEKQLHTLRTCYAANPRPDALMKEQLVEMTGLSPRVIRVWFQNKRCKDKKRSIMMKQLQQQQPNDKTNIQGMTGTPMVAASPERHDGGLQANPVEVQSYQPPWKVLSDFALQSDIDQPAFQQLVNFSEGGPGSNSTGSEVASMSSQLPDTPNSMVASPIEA

For another series, the target named is T3, Pou4f2D2 (mouse, UniProt Q63934 1-330).
T3 sequence: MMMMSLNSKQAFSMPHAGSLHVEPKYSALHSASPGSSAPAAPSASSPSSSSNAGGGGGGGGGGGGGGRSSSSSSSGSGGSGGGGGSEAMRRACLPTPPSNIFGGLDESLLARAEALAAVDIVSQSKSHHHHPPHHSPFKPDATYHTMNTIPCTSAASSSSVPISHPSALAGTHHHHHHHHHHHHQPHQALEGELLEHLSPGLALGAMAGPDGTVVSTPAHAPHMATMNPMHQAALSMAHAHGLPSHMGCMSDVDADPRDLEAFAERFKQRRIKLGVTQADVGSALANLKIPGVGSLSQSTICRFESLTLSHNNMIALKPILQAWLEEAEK

The target in another series is T4, Pou4f2D5 (mouse, UniProt Q63934 125-411).
T4 sequence: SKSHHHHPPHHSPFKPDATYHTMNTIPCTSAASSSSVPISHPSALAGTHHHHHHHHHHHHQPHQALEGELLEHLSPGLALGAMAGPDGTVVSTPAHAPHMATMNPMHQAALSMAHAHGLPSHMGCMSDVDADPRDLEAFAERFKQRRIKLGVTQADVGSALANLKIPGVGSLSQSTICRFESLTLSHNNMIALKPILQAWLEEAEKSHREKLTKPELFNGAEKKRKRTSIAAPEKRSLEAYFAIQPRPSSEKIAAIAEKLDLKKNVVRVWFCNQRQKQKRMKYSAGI

A further series has as its target T5, Isl1D1 (mouse, UniProt P61372 1-181).
T5 sequence: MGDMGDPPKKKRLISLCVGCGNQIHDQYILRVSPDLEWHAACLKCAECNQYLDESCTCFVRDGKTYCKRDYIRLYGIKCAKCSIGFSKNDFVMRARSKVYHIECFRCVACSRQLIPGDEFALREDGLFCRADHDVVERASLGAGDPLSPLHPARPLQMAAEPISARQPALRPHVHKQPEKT

B1: CBRN3(W) (dsDNA)
DNA 1: GATCTCTCCTGCATAATTAATTACCCCCGGAT
DNA 2: GATCCGGGGGTAATTAATTATGCAGGAGAGAT
Regarding B1, the binding result in the series with Pou4f2D4 was “binds”; in the series with Isl1D3, “binds”; with Pou4f2D2 it was “no binding”; with Pou4f2D5, “binds”; with Isl1D1 it was “no binding”.

B2: SBRN3(W) (dsDNA)
DNA 1: GCACACGACCCAATGAATTAATAACCGGGCTG
DNA 2: GCAGCCCGGTTATTAATTCATTGGGTCGTGTG
As to B2, the binding result is reported as “binds” with Pou4f2D4; “binds” with Isl1D3; “no binding” with Pou4f2D2; “binds” in the series with Pou4f2D5; “no binding” in the series with Isl1D1.
